Experimental data reported in the DeepSol protein solubility set.

test: soluble on expression in E. coli; label from the status in PepcDB or PDB records

Row | Sequence | soluble on expression in E. coli
1 | MGSISRYLLKKAADGLKDEQRLKIEMSDSKSVPECFHFNRERRMPIAEINGEDGFFMFPSQQSLENFENTKKYSNELSPDAIGIPLFQIINCTLPFGKRGHSNTVVGNVPYYKIFKFILRTADEPPPYTVAKIVCSNNGLILYKVPLYDIYKNVSQANVTYSFVGTTSTEPNLLAMAHREGHRDLDTKVNNLNLRWHVTYSPVVTNDHYKLILLADYEVNRLDEDVIRAAKNKMSIDQKDQKVQRFVAAHYTREFETSLFRWVAQEGHLILGEYSTDQGSFGLNNIPPLTEELGCQSLLIHYIEYMKRQRKKIAKEARRQNKRNVANTTNMNMNLM | soluble
2 | MDLVKVDDDVVREMEIRRQQHSKKYDRKFEELVKSMSEAHVEPEKMKIPFSRKPTEQETNNLREEWEKEYAALCTSGRTLARPNPNSSIFSKILAQGSPSSAKAGTTRSTPRTSKPPSADENIIFGQKLPETPAPKLLCPPRASPGSSRRLSIFVENLPENHAEIVRGTIFAGREAKIMQNDPENVPSTSTYGEPIRPYLLFARYISLEKGLLDDKNRYKSATDPRFREFLKENIKYKVKQSIKHRTSSEACAQILNYFKTLLQKQEVQVLGGYAPVLQLKTNKDIEYASLCIVHNYVILAERDESLIPLISSHITRLSVFYGYIEQVFCIILLSRSALLRQHPEECMVKFLATSMNPSSPDAIKKWSRQKAHIILFCSVFTKNAYCFSKGFKLKLTDEILWKYVDASTAHILEIPRGSFILWQLITTCKPRLQVDKERWIQLLLNIKFKIIPELDLDSFDGDEAMLMQLKQTIDELLHP | not soluble
3 | MGSDKIHHHHHHMRVASPETFASQSYRLLPFRFERVNDDRFLLINEVGEHCYLNCADLNNLVNGYLTTSGKTFQNLESKSFVYSENNNFALRAFSAKYRARKSFLFDGPALHIFVLTLRCENSCEYCQVTRRSPDAVKYDMPLSIAKQAVLRMFESPAENLTVEFQGGEPLLAYDVLKYIVELCIELNITEQKSLQFVVATSLQNINMEMLEFFHLHNVHISTSVDGPQWLHQLNRPNSCSNSYEKTMHGLEMARGVLGHDRIAGMTTITRSSLTAIKTIIDEYVRLGFHSIFLRPLNMYGFAVKKENKVGYSSEDFNKFYEQALKYIIEINQQGYRLDEVNAALALNNILTPQATGYVDMRSPCGDGTGVLVYNYDGKVYPSDESRMLVEMGDESLALGSVSESYQDLMSSSVLNTILHAGIAEALPGCSDCAYLPYCGANPIQNYSRYGDMIGHRTFSAFCAKQKFLYRYVFNLLQDKSNRTVFNSWLPL | not soluble
4 | VVTRIVILGGGPAGYEAALVAATSHPETTQVTVIDCDGIGGAAVLDDCVPSKTFIASTGLRTELRRAPHLGFHIDFDDAKISLPQIHARVKTLAAAQSADITAQLLSMGVQVIAGRGELIDSTPGLARHRIKATAADGSTSEHEADVVLVATGASPRILPSAQPDGERILTWRQLYDLDALPDHLIVVGSGVTGAEFVDAYTELGVPVTVVASQDHVLPYEDADAALVLEESFAERGVRLFKNARAASVTRTGAGVLVTMTDGRTVEGSHALMTIGSVPNTSGLGLERVGIQLGRGNYLTVDRVSRTLATGIYAAGDCTGLLPLASVAAMQGRIAMYHALGEGVSPIRLRTVAATVFTRPEIAAVGVPQSVIDAGSVAARTIMLPLRTNARAKMSEMRHGFVKIFCRRSTGVVIGGVVVAPIASELILPIAVAVQNRITVNELAQTLAVYPSLSGSITEAARRLMAHDDLDCTAAQDAAEQLALVPHHLPTSN | soluble
5 | CHETTTVALPESIGVGKGTTTLEDFENADAIFIIGQNPGSNSPRMMSELHAAAKRGASIISFNPLREKALVRFASPQDPRDMLSLHGVEISSQYHQVRIGGDMIALQGVCKAVIEADDVARREHLPRVLDVAFIEEHTHGFEQYADYCRQLPWDLIESHSGLTRQAIEDVAAVYRRSERVICCWGMGVTQHKRGGDAVQQIINLLLLRGNIGKLGAGACPVRGHSNVQGDRTMGIYEKAGEPFLASMSKVFGFEA | not soluble
6 | MLEYKLIRSKRRKTLALQVKHGQVTVRAPHYVTSAFIDTFIQEKSAWLRSKLAEQQKTPEYCDFSQGSNLLYLGEKVILNICIAKKSEVYFSHLVIAEIEPKNYQEITTKQLNVAISEKIHSRLINPLAISKQIKKQLEVYFKQQAEQLFSERLERISKQISLCPTAINIRQYRARWGSCNNRGEVSFNYLLMMTPLTVIDYVIVHELCHLEHLNHSKEFWHLVEKFCPNYEIAKKWLNTYQSLEHHHHHH | soluble
7 | MAHHHHHHMSDCHWAVIRKAVEAEWDASIIPALAAYIEVPNQSPDFDPQWATNGLLTKAFTILINWMKGQNLLGLSYELMEVEGRTPFLLVEIAGTEPTKNTLLMYGHMDKQPPLHPWGEGLDPHKAVVRDGKLYGRGGADDGYALFSAITSVSVLQRHGIPHGRVIVVIEACEESGSFDLDYYMERCKERIGNVDLMICLDSACLNYSQVWLTTSLRGVTGGVLNVQTLTESMHSGVAGGVVPDTFRIARELLDRVEDSKTGKVLFPEAYCEIPDYVVKSMESMKAVPFKEQFAMADGVSAEPGDNVELALRNFWKPSLTVTGSNLPEPQIAGNVIRTHTSLKLSLRVPPLVDAEKATQAMAKVLVANPPYGAKVWFEPEVPGDGCATPELKPWLVTALNEGSKMAYGNPLAFQGMGASIPFISMLLKAYPQAQFVVTGVLGPKSNAHGPNEFLHIEYAKGLTFAISRVVAEHFSHTPK | soluble
8 | MGSDKIHHHHHHMSRSDARICAIHQPNFFPWLGYFDKIVRADIFVLLDDVQYQKTGGNWTNRVQMMIGQGPKWVTAPVDRSYSGVRQIREIRFSPVEREWREKLCSTITASYGRAAYFREVYPFIEPIIMNDSDFLSDYNSHAIAALCDYLEIESSKLVRSSQFNLQNNATDLLIDITKAVGAVRYLCGGGAQGYQEDEKFPRHGIQLIYQNFCHPIYTQANDAPFQPGLSIVDALMHCGRRGVIELLNRK | not soluble
9 | MSEAEYFSHFISNGNGKLLEIPQRRGRQDGVFIDWLSFTLHEDSLLKVSGCPLVSDAEYMFVLSKKLEEILGFGITSRCKSKGNKFYDSMFRLGSEEVDYGEVHYGGQRNTVLIELKGVGCNIANPGWELRLKQFLEDSLRPRITRVDLALDFFDGEYTPEQALLDHDNGFFDNSNMRPKSEMVGTAWRREDGSGKTFYVGRKKNSRFVRVYEKGRQLGDKESKWVRFEIQFNHGDMEIPLDILINQGSYFSGAFPICQKFKNMPNPERFDYRKKVANLTFQHKLRYAKNAVGKLINFMFDMGFDSDEIVRYLKADLGYPKGLEPEKYSLAGLKESLKFGFIHEQPDVDLEVELEELGIIKFKQSDKFDPDKRLFDPHHDVESERQYQLYLDRMYDLHANQN | not soluble
10 | MAHHHHHHMSSPAWSVYEGDWGSFCDDADNVPPTLSLKGCGLRQKCLLQRGAQGAVYLGEDADGNVFVVKRLFTQRSEFGVRGVSEGSLREATLLTYITERSKTLGPEPLFGVIRLERIVEAPFQELSLILERCAFNLSRMVFYSRKRAYSAAGLFPETPTRCPILAKMNVIQYLMRGILKILQFLHEECHIIHRDVKLGNLLVGEDGRVRLADFGSARFMHEPVEKMSDARSGEYTPISLRTTVIYQAPECLLGERSYTAAVDMWAAGVVFAELLLQQHLFHSCSELGMLSDIWKLLGTPSDDPSVCSGEGAVTYAVRTESTIERKFPERIVSAEGLDLLKRMLETNPKKRITDSEALRHPFLCGPAVESGMEEARRLWNKKVEACMQETVAQPAAMGMRSFYVDNVEFDEESGENDDDDGEIATLPTCLDCFPHILSDVNGRHDI | not soluble
11 | SSTDQGTNPADTDDLTPTTLSLAGDFPKATEEQWEREVEKVLNRGRPPEKQLTFAECLKRLTVHTVDGIDIVPMYRPKDAPKKLGYPGVAPFTRGTTVRNGDMDAWDVRALHEDPDEKFTRKAILEGLERGVTSLLLRVDPDAIAPEHLDEVLSDVLLEMTKVEVFSRYDQGAAAEALVSVYERSDKPAKDLALNLGLDPIGFAALQGTEPDLTVLGDWVRRLAKFSPDSRAVTIDANIYHNAGAGDVAELAWALATGAEYVRALVEQGFTATEAFDTINFRVTATHDQFLTIARLRALREAWARIGEVFGVDEDKRGARQNAITSWRELTREDPYVNILRGSIATFSASVGGAESITTLPFTQALGLPEDDFPLRIARNTGIVLAEEVNIGRVNDPAGGSYYVESLTRSLADAAWKEFQEVEKLGGMSKAVMTEHVTKVLDACNAERAKRLANRKQPITAVSEFPMIGARSIETKPFPAAPARKGLAWHRDSEVFEQLMDRSTSVSERPKVFLACLGTRRDFGGREGFSSPVWHIAGIDTPQVEGGTTAEIVEAFKKSGAQVADLCSSAKVYAQQGLEVAKALKAAGAKALYLSGAFKEFGDDAAEAEKLIDGRLFMGMDVVDTLSSTLDILGVAK | soluble
